In patent US20100136573A1, “DIAGNOSING NEURODEGENERATIVE DISEASES” (priority 2007, published 2010):

Experiments:
HEK293 cells = test: Inclusion formation and distribution of GFP-TDP-43 constructs, confocal microscopy; type: cell-based; details: for cells with compact cytoplasmic inclusions: HEK293, 48 hours after transfection; for cellular distribution / inclusion formation: HEK293, confocal fluorescence microscopy
Procedure: HEK293 cells, grown on glass coverslips, were transfected with 0.3 μg of expression vector (GFP, GFP-TDP-43, GFP-TDP-43-caspase-resistant, GFP-TDP-35, GFP-TDP-25, or GFP-TDP-ΔNR1) by using Lipofectamine 2000 (Invitrogen) according to the manufacturer's instructions then subjected to immunofluorescence analysis 48 hours later. To determine if the cytoplasmic inclusion were insoluble, some cells were treated with 0.2% Triton X-100 prior to fixation, in order to remove soluble protein. To determine if the formation of inclusion was aggresome-dependent, some cells were treated with 1 μM nocodazole (Sigma) for 24 hours after 6 hours of transfection. Finally, to examine if inclusions were ubiquitinated, cells were cotransfected with 0.3 μg of a TDP-43 construct and 0.5 μg HA-ubiquitin, then subjected to immunofluorescence analysis 72 hours later.
(§1) The cultured HEK293 and differentiated M17 cells were fixed with 4% paraformaldehyde in phosphate-buffered saline (PBS) at 4° C. for 15 minutes and permeabilized with PBS-0.5% Triton X-100 for 10 minutes. After blocking with 5% BSA for 1 hour at 37° C., the cells were incubated overnight at 4° C. with mouse monoclonal HA antibody (1:1000, Roche Applied Science), rabbit polyclonal activated caspase-3 antibody (1:250, Cell Signaling), rabbit polyclonal anti-pTDP-43 (which detects phosphorylated S409/S410; 1:1000, COSMO BIO CO., LTD), mouse monoclonal Flag antibody (1:1000, Sigma), rabbit polyclonal M2085 (1:1000), or rabbit polyclonal M2079 (1:1000). After washing, cells were incubated with the Alexa 568-conjugated goat anti-mouse IgG secondary antibody (1:1000, Molecular Probes) or anti-rabbit IgG secondary antibody (1:500, Molecular Probes) at 37° C. for 2 hours. Finally, Hoechst 33258 (1 μg/mL, Invitrogen) was used to stain the nuclei. Images were obtained on a Zeiss LSM 510 META confocal microscope.

[1] = test system: differentiated M17 neuroblastoma cells; test: Toxicity assay (LDH release, activated caspase-3 staining); type: cell-based
Procedure: M17 neuroblastoma cells, seeded at 2.5×10^3 cells per well in 24-well plates, were grown in Neurobasal A/B27 medium containing Glutamax (Invitrogen) and 10 μM retinoic acid (Sigma) to induce differentiation. Seven days later, cells were transfected with 0.2 μg of expression vector for 72 hours. The medium was collected, and a LDH assay (Promega) was used to measure LDH levels as an indicator of toxicity. Then, cells were fixed, and immunofluorescent staining was done using an antibody against activated caspase-3 (1:250; Cell signaling) and the nuclear marker, bisbenzimide (Hoechst 33258).
as §1

[2] = target: T1, Recombinant human GST-TDP43 (Homo sapiens, UniProt Q13148); test: In vitro caspase-3 assay; type: biochemical; details: 2 units, 2 and 4 hours, Coomassie staining
T1 construct: Full-length or caspase-3-treated recombinant GST-TDP43 (0.5 μg) was separated by 10% SDS-PAGE
T1 sequence (Q13148 whole entry): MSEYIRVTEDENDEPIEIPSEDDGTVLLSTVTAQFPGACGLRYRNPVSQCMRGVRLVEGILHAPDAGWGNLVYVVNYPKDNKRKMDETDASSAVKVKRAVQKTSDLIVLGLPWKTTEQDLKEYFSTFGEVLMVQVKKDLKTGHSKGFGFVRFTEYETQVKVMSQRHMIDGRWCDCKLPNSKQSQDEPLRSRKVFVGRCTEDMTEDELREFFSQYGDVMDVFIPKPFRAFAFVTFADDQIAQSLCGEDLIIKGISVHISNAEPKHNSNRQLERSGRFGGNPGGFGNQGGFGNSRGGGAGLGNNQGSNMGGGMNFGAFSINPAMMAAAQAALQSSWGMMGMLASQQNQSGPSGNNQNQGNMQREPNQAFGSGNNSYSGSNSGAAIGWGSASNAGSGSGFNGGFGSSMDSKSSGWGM
Procedure: Recombinant human GST-TDP43 (2 μg) was incubated with active human recombinant caspase-3 (2 units, CHEMICON International, Inc., Temecula, Calif.) in reaction buffer containing 100 mM NaCl, 50 mM HEPES, 10 mM DTT, 1 mM EDTA, 10% glycerol, 0.1% CHAPS, pH 7.4) at 37° C. for 2 hours or 4 hours, respectively. Cleavage reactions were terminated by addition of 2×SDS loading buffer. Full-length or caspase-3-treated recombinant GST-TDP43 (0.5 μg) was separated by 10% SDS-PAGE and stained with Coomassie blue.

Flag-TDP-43 = target: T2, Flag-TDP-43 (Homo sapiens, UniProt Q13148); test: Co-immunoprecipitation with Flag-TDP-43; type: binding; details: HeLa cells, probing for GFP
T2 construct: the exon skipping activity in cells overexpressing full-length TDP-43 was examined; expressed in transfected cells; host or cells: HeLa cells
T2 sequence (Q13148 whole entry): as above
Procedure: (§2) For co-immunoprecipitation studies, HeLa cells were transfected with 1 or 2 μg of each plasmid. Cells were harvested 48 hours later using Co-IP buffer (50 mM Tris-HCl, pH 7.4, 1 M NaCl, 1% Triton X-100, 5 mM EDTA) containing PMSF as well as protease and phosphatase inhibitors. The lysates were sonicated and centrifuged at 16,000 g for 20 minutes. The protein concentration of supernatants was determined by BCA assay (Thermo Scientific). Supernatant containing 500 μg of total protein was combined with Anti-Flag M2 agarose (Sigma) and incubated overnight at 4° C. with gentle shaking. The agarose was pelleted by centrifugation at 2,500 g for 5 minutes and washed with Co-IP buffer 6 times. Captured protein was eluted from the beads using loading buffer and resolved by SDS-PAGE for Western blot analysis.

[3] = test system: TDP-43 exon 9 skipping activity; test: CFTR mini-gene splicing assay; type: cell-based
Procedure: The CFTR mini-gene splicing assay was conducted as described elsewhere (Pagani et al., J. Biol. Chem., 275(28):21041-21047 (2000) and Ayala et al., FEBS Lett., 580(5):1339-1344 (2006)). In brief, Hela cells were co-transfected with 1 μg of minigene construct and 1 μg of GFP-fusion protein expression vector. […] Then, 2 μg of total RNA was used to synthesize cDNA using the SuperScript III First-Strand Synthesis System (Invitrogen). For the PCR, 2 μL of cDNA was used in a 20 μL of reaction according to the manufacturer's protocol for Taq PCR Core Kit (Qiagen). The amplification conditions consisted of an initial denaturation step at 94° C. for 3 minutes, followed by 30 cycles of 94° C. for 30 seconds, 62° C. for 60 seconds, and 72° C. for 90 seconds.

hnRNPA2 = target: T3, hnRNPA2 (Homo sapiens, UniProt P22626); test: Co-immunoprecipitation with Flag-tagged hnRNPA2; type: binding; details: HeLa cells, probing for GFP
T3 construct: expressed in transfected cells; host or cells: HeLa cells
T3 sequence (P22626 1-341 isoform P22626-2, species assumed): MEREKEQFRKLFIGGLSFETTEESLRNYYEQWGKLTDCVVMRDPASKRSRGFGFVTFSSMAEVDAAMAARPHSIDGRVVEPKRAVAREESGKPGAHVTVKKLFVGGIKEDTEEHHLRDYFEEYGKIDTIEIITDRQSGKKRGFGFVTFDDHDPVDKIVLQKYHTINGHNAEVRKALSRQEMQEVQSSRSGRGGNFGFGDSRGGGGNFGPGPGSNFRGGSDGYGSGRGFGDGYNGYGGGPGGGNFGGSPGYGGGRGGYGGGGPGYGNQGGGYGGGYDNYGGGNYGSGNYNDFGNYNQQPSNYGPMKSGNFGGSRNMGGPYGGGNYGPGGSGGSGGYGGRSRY
Procedure: as §2

[4] = medium collected 72 hours after transfection

B1: GFP-TDP-35: GFP-tagged 35 kDa (aa 90-414) C-terminal TDP-43 fragment (protein, UniProt Q13148 90-414, looked up, fragment)
chain: ASSAVKVKRAVQKTSDLIVLGLPWKTTEQDLKEYFSTFGEVLMVQVKKDLKTGHSKGFGFVRFTEYETQVKVMSQRHMIDGRWCDCKLPNSKQSQDEPLRSRKVFVGRCTEDMTEDELREFFSQYGDVMDVFIPKPFRAFAFVTFADDQIAQSLCGEDLIIKGISVHISNAEPKHNSNRQLERSGRFGGNPGGFGNQGGFGNSRGGGAGLGNNQGSNMGGGMNFGAFSINPAMMAAAQAALQSSWGMMGMLASQQNQSGPSGNNQNQGNMQREPNQAFGSGNNSYSGSNSGAAIGWGSASNAGSGSGFNGGFGSSMDSKSSGWGM
modifications: GFP tag
notes: GFP-tagged 35 kDa (aa 90-414) C-terminal TDP-43 fragment
With B1 the “cells with compact cytoplasmic inclusions” value (HEK293 cells) was ~25 % of cells and the cellular distribution (HEK293 cells) was “cytoplasmic and nuclear distribution”.

B2: GFP-TDP-ΔNR1: GFP-tagged C-terminal fragment (aa 193-414) lacking the N-terminus and the RRMI (protein, UniProt Q13148 193-414, looked up, fragment)
chain: VFVGRCTEDMTEDELREFFSQYGDVMDVFIPKPFRAFAFVTFADDQIAQSLCGEDLIIKGISVHISNAEPKHNSNRQLERSGRFGGNPGGFGNQGGFGNSRGGGAGLGNNQGSNMGGGMNFGAFSINPAMMAAAQAALQSSWGMMGMLASQQNQSGPSGNNQNQGNMQREPNQAFGSGNNSYSGSNSGAAIGWGSASNAGSGSGFNGGFGSSMDSKSSGWGM
modifications: GFP tag
notes: GFP-tagged C-terminal fragment (aa 193-414) lacking the N-terminus and the RRMI
B2 was tested, and the “LDH levels compared to cells expressing only GFP” value [1, 4] was “no different”, the cellular distribution (HEK293 cells) was “diffuse cytoplasmic and nuclear immunoreactivity” and the inclusion formation (HEK293 cells) was “no detectable inclusions”.

B3: caspase-3: active human recombinant caspase-3 (CHEMICON) (protein)
chain: SGISLDNSYKMDYPEMGLCIIINNKNFHKSTGMTSRSGTDVDAANLRETFRNLKYEVRNKNDLTREEIVELMRDVSKEDHSKRSSFVCVLLSHGEEGIIFGTNGPVDLKKITNFFRGDRCRSLTGKPKLFIIQACRGTELDCGIETDSGVDDDMACHKIPVEADFLYAYSTAPGYYSWRNSKDGSWFIQSLCAMLKQYADKLEFMHILTRVNRKVATEFESFSFDATFHAKKQIPCIVSMLTKELYFYH
In the case of B3, the “cleavage of recombinant GST-tagged TDP-43” value [2] is reported as “three distinct fragments of approximately 42, 35, and 25 kD”.

B4: GFP-TDP-25: GFP-tagged 25 kDa (aa 220-414) C-terminal TDP-43 fragment (protein)
chain: VFIPKPFRAFAFVTFADDQIAQSLCGEDLIIKGISVHISNAEPKHNSNRQLERSGRFGGNPGGFGNQGGFGNSRGGGAGLGNNQGSNMGGGMNFGAFSINPAMMAAAQAALQSSWGMMGMLASQQNQSGPSGNNQNQGNMQREPNQAFGSGNNSYSGSNSGAAIGWGSASNAGSGSGFNGGFGSSMDSKSSGWGM
modifications: left off: large carriers
notes: GFP-tagged 25 kDa (aa 220-414) C-terminal TDP-43 fragment
For B4, the “binding to Flag-TDP-43” value (Flag-TDP-43) was “only weakly interacted”, the “LDH release compared to cells transfected with full-length or caspase-resistant TDP-43” value [1, 4] was “significantly higher” and the “inclusion-positive cells positive for fragmented nuclei and activated caspase-3” value ([1]; quantitative analysis, Hoechst and activated caspase-3 staining) was ~50%. The “CFTR exon 9 exclusion (endogenous TDP-43 background)” value ([3]; HeLa cells cotransfected with CFTR minigene, RT-PCR, compared to GFP) was “did not differ”, the “exon skipping activity in cells overexpressing Flag-TDP-43” value ([3]; cotransfected with CFTR mini-gene and Flag-TDP-43) was “did not reduce” and the “binding to hnRNPA2” value (hnRNPA2) was “interact with hnRNPA2”. For the same molecule, the “cells with compact cytoplasmic inclusions” value (HEK293 cells) was ~75 % of cells, the cellular distribution (HEK293 cells) was “cytoplasmic and nuclear distribution” and the “nuclear localization of Flag-TDP-43” value (HEK293 cells; HEK293 co-transfected with Flag-TDP-43) was “not appreciably altered”.

B5: GFP-TDP-25S409A/S410A: mutant GFP-TDP-25 incapable of being phosphorylated at S409/S410 (protein)
chain: VFIPKPFRAFAFVTFADDQIAQSLCGEDLIIKGISVHISNAEPKHNSNRQLERSGRFGGNPGGFGNQGGFGNSRGGGAGLGNNQGSNMGGGMNFGAFSINPAMMAAAQAALQSSWGMMGMLASQQNQSGPSGNNQNQGNMQREPNQAFGSGNNSYSGSNSGAAIGWGSASNAGSGSGFNGGFGSSMDSKAAGWGM
modifications: left off: large carriers
notes: mutant GFP-TDP-25 incapable of being phosphorylated at S409/S410
With B5 the “LDH release compared to cells transfected with full-length or caspase-resistant TDP-43” value [1, 4] was “significantly higher” and the inclusion formation (HEK293 cells) was “formed cytoplasmic inclusions”.
